Columns and labels:
[1] = target: SdKefQCTD (KTN-containing carboxy-terminal domain construct of the Shewanella denitrificans Kef potassium efflux system) (Shewanella denitrificans); experiment: SEC-MALS; size-exclusion chromatography-multiangle laser scattering (Figure S2); in solution, at the concentrations used (not given)
[2] = target: SdKefQCTD (KTN-containing carboxy-terminal domain construct of the Shewanella denitrificans Kef potassium efflux system) (Shewanella denitrificans); experiment: SEC; gel filtration (Figure S1); in solution, at the concentrations used (not given)
[3] = target: SdKefQCTD (KTN-containing carboxy-terminal domain construct of the Shewanella denitrificans Kef potassium efflux system) (Shewanella denitrificans); experiment: AUC; analytical ultracentrifugation (Figure S3); in solution, at the concentrations used (not given)
[4] = target: SdKefQCTD (KTN-containing carboxy-terminal domain construct of the Shewanella denitrificans Kef potassium efflux system) (Shewanella denitrificans); experiment: native MS; nanoelectrospray on a QToF-2, 200 mM ammonium acetate, 7.5 uM with respect to the dimer, positive polarity; collisional activation to remove AMP

Measured: stoichiometry N

SdKefQCTD (KTN-containing carboxy-terminal domain construct of the Shewanella denitrificans Kef potassium efflux system) (domain or fragment)
2: all assays above

Source: PMC5645763
